Data on one variant can be found in IntAct's records for PubMed 17403664.

The chains are these.
B1: Differentially expressed in FDCP 6 (Mus musculus), Q8C2K1 (parent)
chain: MALRKELLKSIWYAFTALDVEKSGKVSKSQLKVLSHNLYTVLNIPHDPVALEEHFRDDDDGPVSSQGYMPYLNKYILDKVEEGAFVKEHFDELCWTLTAKKNYRADGIGSSPLSNQDAFRLWCLFNFLSEDKYPLIMVPDEVEYLLKKLLGSLSLEMGLGELEELLAQDAQSAQTAVGLSVWQFLELFNSGRCLRGVGRDSLSMAIQEVYQELIQDVLKQGYLWKRGHLRRNWAERWFQLQPSSLCYFGSEECKEKRGTIPLDAHCCVEVLPDREGKRCMFCVKTASRTYEMSASDTRQRQEWTAAIQTAIRLQAEGKTSLHKDLKQKRREQREQRERRRAAKEEELLRLQQLQEEKERKLQELELLQEAQRQAERLLQEEEERRRSQHKELQQALEGQLREAEQARASMQAEMELKKEEAARQRQRIAELEEMQERLQEALQLEVKARRDEEAVRLAQTRLLEEEEEKLKQLMHLKEEQERYIERAQQEKQELQQEMALQSRSLQHAQQQLEEVRQNRQRADEDVEAAQRKLRQASTNVKHWNVQMNRLMHPIEPGDKRPTTSSSFTGFQPPPLARRDSSLKRLTRWGSQGNRTLSVNSSEQKSLNGGDETPILALASQEEKLDPAPGN
partner: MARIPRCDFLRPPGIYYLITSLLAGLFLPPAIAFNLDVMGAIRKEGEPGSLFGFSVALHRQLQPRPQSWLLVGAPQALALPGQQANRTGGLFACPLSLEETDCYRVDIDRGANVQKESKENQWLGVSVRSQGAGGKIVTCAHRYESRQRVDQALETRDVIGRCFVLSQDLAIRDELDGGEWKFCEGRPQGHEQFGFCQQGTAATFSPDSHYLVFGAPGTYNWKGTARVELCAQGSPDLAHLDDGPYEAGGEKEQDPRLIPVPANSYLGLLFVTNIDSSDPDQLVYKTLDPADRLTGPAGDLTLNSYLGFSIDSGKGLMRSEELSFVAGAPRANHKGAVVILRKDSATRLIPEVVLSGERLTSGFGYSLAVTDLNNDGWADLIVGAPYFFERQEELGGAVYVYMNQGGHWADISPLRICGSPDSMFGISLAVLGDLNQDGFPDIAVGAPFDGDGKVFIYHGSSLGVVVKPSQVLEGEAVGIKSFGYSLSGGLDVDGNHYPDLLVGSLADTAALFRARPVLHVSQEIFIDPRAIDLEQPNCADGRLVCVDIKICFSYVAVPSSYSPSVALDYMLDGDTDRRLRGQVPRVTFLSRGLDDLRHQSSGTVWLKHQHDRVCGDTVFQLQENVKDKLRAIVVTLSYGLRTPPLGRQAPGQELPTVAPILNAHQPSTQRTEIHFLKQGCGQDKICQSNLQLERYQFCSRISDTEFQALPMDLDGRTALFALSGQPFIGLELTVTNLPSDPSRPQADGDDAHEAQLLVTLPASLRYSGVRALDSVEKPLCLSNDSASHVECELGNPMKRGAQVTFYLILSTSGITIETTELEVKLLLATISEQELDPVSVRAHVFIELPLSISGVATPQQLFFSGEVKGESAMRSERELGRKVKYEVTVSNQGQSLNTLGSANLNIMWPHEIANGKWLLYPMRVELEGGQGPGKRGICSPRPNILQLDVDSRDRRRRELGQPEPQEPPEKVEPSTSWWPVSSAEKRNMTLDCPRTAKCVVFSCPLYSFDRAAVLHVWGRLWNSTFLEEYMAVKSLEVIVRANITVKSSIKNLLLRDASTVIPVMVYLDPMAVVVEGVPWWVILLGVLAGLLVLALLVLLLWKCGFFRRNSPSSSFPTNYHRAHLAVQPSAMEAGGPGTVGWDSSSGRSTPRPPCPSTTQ

This experiment covers variants of B1. The note with it: with Itga7, Q61738-6.
For Y210E, the “effect of a mutation on the interaction” value is “decreasing interaction”.
